Laboratory results: article PMC4571948, “Identification of a Novel Sequence Motif Recognized by the Ankyrin Repeat Domain of zDHHC17/13 S-Acyltransferases*” (The Journal of Biological Chemistry, 2015)

Target: T1, GST-17NAnk (GST-tagged N-terminal (1–305) zDHHC17) (murine, UniProt Q80TN5 1-305)
T1 construct: zDHHC17, murine cDNA, N-terminal residues 1–305 with the AR domain; also called GST-17Ank; GST-tagged AR-containing cytosolic region of zDHHC17; source: E. coli BL21(DE3)pLysS, purified (glutathione resin)
T1 sequence (looked up): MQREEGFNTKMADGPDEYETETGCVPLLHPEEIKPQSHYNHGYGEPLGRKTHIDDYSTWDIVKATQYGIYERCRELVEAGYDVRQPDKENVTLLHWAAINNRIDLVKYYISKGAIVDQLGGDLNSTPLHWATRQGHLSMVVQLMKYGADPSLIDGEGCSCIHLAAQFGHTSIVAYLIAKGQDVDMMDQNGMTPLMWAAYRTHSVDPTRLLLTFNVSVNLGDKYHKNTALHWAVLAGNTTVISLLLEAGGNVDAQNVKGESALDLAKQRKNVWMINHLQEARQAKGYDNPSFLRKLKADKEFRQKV
Experiment: pull-down; 20 μg GST-17NAnk (or GST) on 10 μl glutathione-Sepharose, 20 μg His6-CSPα or His6-SNAP25b(93–206) (and competing amounts of the other), overnight at 4 °C, PBS washes, Coomassie staining
Conditions: both partners purified

B1: His6-CSPα (natural protein, bovine, UniProt Q29455 1-198, looked up)
chain: MADQRQRSLSTSGESLYHVLGLDKNATSDDIKKSYRKLALKYHPDKNPDNPEAADKFKEINNAHAILTDATKRNIYDKYGSLGLYVAEQFGEENVNTYFVLSSWWAKALFIFCGLLTCCYCCCCLCCCFNCCCGKCKPKAPEGEETEFYVSPEDLEAQLQSDEREAADTPIVIQPASATETTQLTADSHPSYHTDGFN
notes: CSPα, bovine cDNA; also called His-tagged CSPα; source: E. coli BL21(DE3)pLysS, purified (Ni2+-NTA)
Does B1 bind?
Result: binds
